The experiment concerns the target recombinant human TNFa (Shanghai Primegene Bi-Tech) (Homo sapiens, UniProt P01375).

Substitutions are numbered along the chain they refer to.

recombinant human TNFa (Shanghai Primegene Bi-Tech), sequence (P01375 whole entry): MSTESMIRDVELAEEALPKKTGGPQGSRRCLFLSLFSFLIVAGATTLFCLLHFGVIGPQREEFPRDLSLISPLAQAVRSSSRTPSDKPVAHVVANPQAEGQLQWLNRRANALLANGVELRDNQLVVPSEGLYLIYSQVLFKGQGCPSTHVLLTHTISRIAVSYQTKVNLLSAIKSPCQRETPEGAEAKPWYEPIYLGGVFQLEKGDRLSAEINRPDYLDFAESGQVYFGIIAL

B1: 101 (antibody, V domains shown)
VH: QSVKESEGGLFKPTDTLTLTCTVSGFSLSRYGVSWVRQAPGSGLQWIGAIGETGRAYYANWAKSRSTITRNTNVNTVTLKMTSLTAADTATYFCARGEEFNNGWGAFNIWGPGTLVTVSS
VL: AYDMTQTPASVSEPVGGTVTIKCQASENIYTSLAWYQQKPGQPPKLLIYSASTLASGVPSRFKGSGSGTEFTLTISDLECADAASYYCQQGFATSNVENPFGGGTEVVVK
Consider B1, for which the binding result is recorded as “binds”.

B2: 810 (antibody, V domains shown)
VH: B1 VH with T14A, S42N, Q45E, A49T, T53A, K63R, N71T, V74L, K80T, E99V
VL: B1 VL with N28S, T31S, S32G, S50Q, P59S, E70D, T74A, S85T, A93G, T105S
Consider B2, for which the binding result was “binds”.

B3: 877 (antibody, V domains shown)
VH: B1 VH with S34T, S42N, A49T, A56S, N60S, I68V, V74E, E99L
VL: B1 VL with T31S, P59S, D77G, L78V, E79Q, A81E, S85T, A93G, S95N
With B3, the binding result is on record as “binds”.

Values taken from publication doi:10.1101/2019.12.18.881029 (bioRxiv, 2019).
